The values below come from publication PMC8142252, “The Arabidopsis thaliana chloroplast division protein FtsZ1 counterbalances FtsZ2 filament stability in vitro” (The Journal of Biological Chemistry, 2021).

For the experiment, the target named is T1, AtFtsZ2 (Arabidopsis thaliana FtsZ2-1, full-length mature protein lacking its transit peptide) (Arabidopsis thaliana, UniProt O82533 49-478).
T1 construct: Purified AtFtsZ2 runs as a doublet on SDS-PAGE; also called AtFtsZ2-1; source: E. coli DE3 Rosetta cells overexpressing the E. coli ftsQAZ operon, purified (Ni-NTA); not shown: His6, C-terminal, kept
T1 sequence (looked up): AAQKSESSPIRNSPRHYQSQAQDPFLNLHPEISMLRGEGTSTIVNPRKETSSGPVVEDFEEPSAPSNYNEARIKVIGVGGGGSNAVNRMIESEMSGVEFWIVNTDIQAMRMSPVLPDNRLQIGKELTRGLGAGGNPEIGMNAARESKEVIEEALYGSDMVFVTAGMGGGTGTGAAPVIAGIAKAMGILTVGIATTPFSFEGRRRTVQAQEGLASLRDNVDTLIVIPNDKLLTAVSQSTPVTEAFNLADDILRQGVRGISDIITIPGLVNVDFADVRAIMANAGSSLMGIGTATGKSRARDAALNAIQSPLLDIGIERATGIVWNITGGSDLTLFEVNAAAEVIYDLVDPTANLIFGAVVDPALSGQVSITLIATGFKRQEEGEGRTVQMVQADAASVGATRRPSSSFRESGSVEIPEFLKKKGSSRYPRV
In words: 90° light scattering; 5 μM AtFtsZ2 (or AtFtsZ2core) mixed with AtFtsZ1, AtFtsZ1 D275A (or AtFtsZ1core) at various ratios before start, HMK buffer, room temperature, started by 10 μM or 500 μM GTP. The settings on record: both partners purified.

B1: AtFtsZ1 (Arabidopsis thaliana FtsZ1-1, full-length mature protein lacking its transit peptide) (natural protein, UniProt Q42545 58-433, looked up)
chain: RSKSMRLRCSFSPMESARIKVIGVGGGGNNAVNRMISSGLQSVDFYAINTDSQALLQSSAENPLQIGELLTRGLGTGGNPLLGEQAAEESKDAIANALKGSDLVFITAGMGGGTGSGAAPVVAQISKDAGYLTVGVVTYPFSFEGRKRSLQALEAIEKLQKNVDTLIVIPNDRLLDIADEQTPLQDAFLLADDVLRQGVQGISDIITIPGLVNVDFADVKAVMKDSGTAMLGVGVSSSKNRAEEAAEQATLAPLIGSSIQSATGVVYNITGGKDITLQEVNRVSQVVTSLADPSANIIFGAVVDDRYTGEIHVTIIATGFSQSFQKTLLTDPRAAKLLDKMGSSGQQENKGMSLPHQKQSPSTISTKSSSPRRLFF
notes: also called AtFtsZ1-1; source: E. coli DE3 Rosetta cells overexpressing the E. coli ftsQAZ operon, purified (Ni-NTA); not shown: His6, C-terminal, kept
On to B1, for which the binding result is listed as “binds”.
